Reference: the supplement of paper PMC9233669
Variants at the floor of the assay were thinned out.

Tests used:
biotinyl-Phe-oxazolone = assay: self-aminoacylation, catalytic enhancement (BFO) (fold over background); higher = more active; k-Seq, kA / k0A0; sequences stand for … in GGGAAUGGAUCCACAUCUACGAAUUC…UUCACUGCAGACUUGACGAAGCUG
Method in brief: (§1)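 Each biotinyl-aminoacyl-oxazolone, at 2–1250 μM, was incubated with mutagenized RNA pools (0.43 μM) carrying a 21-nt variable region. The 50 μL reactions contained HEPES/NaCl/KCl/MgCl2/CaCl2 buffer with 5% acetonitrile at pH 6.9–7.0 and ran for 90 minutes at room temperature. After streptavidin capture, RNA was measured by qPCR in triplicate and by Illumina sequencing, and catalytic enhancement was calculated as median kA over the uncatalyzed rate from a pseudo-first-order fit of per-sequence fraction reacted.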

biotinyl-Ile-oxazolone = assay: self-aminoacylation, catalytic enhancement (BIO) (fold over background); higher = more active; k-Seq, kA / k0A0; sequences stand for … in GGGAAUGGAUCCACAUCUACGAAUUC…UUCACUGCAGACUUGACGAAGCUG
Method in brief: as §1

biotinyl-Met-oxazolone = assay: self-aminoacylation, catalytic enhancement (BMO) (fold over background); higher = more active; k-Seq, kA / k0A0; sequences stand for … in GGGAAUGGAUCCACAUCUACGAAUUC…UUCACUGCAGACUUGACGAAGCUG
Method in brief: as §1

biotinyl-Val-oxazolone = assay: self-aminoacylation, catalytic enhancement (BVO) (fold over background); higher = more active; k-Seq, kA / k0A0; sequences stand for … in GGGAAUGGAUCCACAUCUACGAAUUC…UUCACUGCAGACUUGACGAAGCUG
Method in brief: as §1

biotinyl-Leu-oxazolone = assay: self-aminoacylation, catalytic enhancement (BLO) (fold over background); higher = more active; k-Seq, kA / k0A0; sequences stand for … in GGGAAUGGAUCCACAUCUACGAAUUC…UUCACUGCAGACUUGACGAAGCUG
Method in brief: as §1

biotinyl-Trp-oxazolone = assay: self-aminoacylation, catalytic enhancement (BWO) (fold over background); higher = more active; k-Seq, kA / k0A0; sequences stand for … in GGGAAUGGAUCCACAUCUACGAAUUC…UUCACUGCAGACUUGACGAAGCUG
Method in brief: as §1

Sequence | self-aminoacylation (biotinyl-Phe-oxazolone) | self-aminoacylation (biotinyl-Ile-oxazolone) | self-aminoacylation (biotinyl-Met-oxazolone) | self-aminoacylation (biotinyl-Val-oxazolone) | self-aminoacylation (biotinyl-Leu-oxazolone) | self-aminoacylation (biotinyl-Trp-oxazolone)
CCACACUUCAAGCACGCGGUC [Fam1B.1 aminoacylation ribozyme variant] | 0.928 | 1.76 | 2.3 | 2.1 | 1.54 | 1.91
CCACACUUCAAGCAGUCAGUC [Fam1B.1 aminoacylation ribozyme variant] | 0.947 | 0.788 | 0.562 | 0.91 | 0.717 | 0.54
CCACACUUCAAGCAUCCGGUC [Fam1B.1 aminoacylation ribozyme variant] | 0.999 | 1.03 | 0.859 | 1.38 | 0.817 | 1.11
CCACACUUCAAGCAUUCGGGC [Fam1B.1 aminoacylation ribozyme variant] | 1.51 | 2.54 | 2.37 | 2.83 | 1.79 | 2.99
CCACACUUCAAGCAUUCGGUC [Fam1B.1 aminoacylation ribozyme variant] | 0.969 | 1.12 | 0.887 | 1.27 | 0.899 | 0.943
CCACACUUCAAGCAUUCUGUC [Fam1B.1 aminoacylation ribozyme variant] | 0.618 | 0.414 | 0.32 | 0.497 | 0.284 | 0.372
CCACACUUCAAGCCACCGGUC [Fam1B.1 aminoacylation ribozyme variant] | 1.28 | 1.64 | 1.43 | 2.12 | 1.47 | 1.23
CCACACUUCAAGCGAUCGGCC [Fam1B.1 aminoacylation ribozyme variant] | 20.2 | 3.31 | 4.7 | 5.25 | 2.6 | 7.01
CCACACUUCAAGCGAUCGGUG [Fam1B.1 aminoacylation ribozyme variant] | 41.8 | 4.19 | 6.68 | 4.66 | 8.84 | 6.74
CCACACUUCAAGCGCUCGGUC [Fam1B.1 aminoacylation ribozyme variant] | 3.37 | 1.04 | 0.81 | 1.09 | 1.21 | 1.41
CCACACUUCAAGCUAGCGGUC [Fam1B.1 aminoacylation ribozyme variant] | 0.856 | 0.921 | 0.714 | 0.911 | 0.984 | 0.75
CCACACUUCAAGCUAUCCGUC [Fam1B.1 aminoacylation ribozyme variant] | 0.797 | 1.04 | 0.761 | 1.27 | 0.736 | 1.13
CCACACUUCAAGCUAUCGUUC [Fam1B.1 aminoacylation ribozyme variant] | 0.96 | 0.677 | 0.542 | 0.908 | 0.574 | 0.521
CCACACUUCAAGCUAUCUGUC [Fam1B.1 aminoacylation ribozyme variant] | 0.636 | 0.468 | 0.284 | 0.612 | 0.362 | 0.371
CCACACUUCAAGGAACCGGUC [Fam1B.1 aminoacylation ribozyme variant] | 1.2 | 1.04 | 1.04 | 0.945 | 0.984 | 0.809
CCACACUUCAAGGAAUCAGUC [Fam1B.1 aminoacylation ribozyme variant] | 2.49 | 0.668 | 0.614 | 0.757 | 0.62 | 1.08
CCACACUUCAAGGAAUCCGUC [Fam1B.1 aminoacylation ribozyme variant] | 0.963 | 1.24 | 1.65 | 1.14 | 1.08 | 1.07
CCACACUUCAAGGAUUCGGUC [Fam1B.1 aminoacylation ribozyme variant] | 0.958 | 1.85 | 1.83 | 2.02 | 2.02 | 1.96
CCACACUUCAAGGCAUCGGUC [Fam1B.1 aminoacylation ribozyme variant] | 1.18 | 1.03 | 1.02 | 1.32 | 1.18 | 1.16
CCACACUUCAAGUAAUCAGUC [Fam1B.1 aminoacylation ribozyme variant] | 4.86 | 0.686 | 0.586 | 0.723 | 0.635 | 1.72
CCACACUUCAAGUAAUCGGAC [Fam1B.1 aminoacylation ribozyme variant] | 0.783 | 0.743 | 0.826 | 0.907 | 0.696 | 1.05
CCACACUUCAAUCACUCGGUC [Fam1B.1 aminoacylation ribozyme variant] | 0.947 | 0.936 | 0.763 | 0.984 | 0.773 | 0.753
CCACACUUCACACAAUCGGUC [Fam1B.1 aminoacylation ribozyme variant] | 0.775 | 0.878 | 0.601 | 1.02 | 0.687 | 0.837
CCACACUUCACGCAAUCGGGC [Fam1B.1 aminoacylation ribozyme variant] | 20 | 2.42 | 2.18 | 3.33 | 2.39 | 2.1
CCACACUUCACGCAAUCGGUG [Fam1B.1 aminoacylation ribozyme variant] | 52.2 | 3.09 | 5.89 | 3.5 | 7.74 | 6.24
CCACACUUCACGCAAUCGUUC [Fam1B.1 aminoacylation ribozyme variant] | 0.716 | 0.725 | 0.717 | 0.905 | 0.794 | 0.939

Sequence | self-aminoacylation (biotinyl-Phe-oxazolone) | self-aminoacylation (biotinyl-Ile-oxazolone) | self-aminoacylation (biotinyl-Met-oxazolone) | self-aminoacylation (biotinyl-Val-oxazolone) | self-aminoacylation (biotinyl-Leu-oxazolone) | self-aminoacylation (biotinyl-Trp-oxazolone)
CCACACUUCACGCAGUCGGUC [Fam1B.1 aminoacylation ribozyme variant] | 0.859 | 1.13 | 0.94 | 1.47 | 1.31 | 0.719
CCACACUUCAGGCAAUCAGUC [Fam1B.1 aminoacylation ribozyme variant] | 0.955 | 0.658 | 0.724 | 1.05 | 0.636 | 0.796
CCACACUUCAGGCAAUCGGCC [Fam1B.1 aminoacylation ribozyme variant] | 13.1 | 2.61 | 2.15 | 3.89 | 4.67 | 3.69
CCACACUUCAGGCAAUCGGUG [Fam1B.1 aminoacylation ribozyme variant] | 36.7 | 3.23 | 5.39 | 3.41 | 7.5 | 4.89
CCACACUUCAGGCAAUGGGUC [Fam1B.1 aminoacylation ribozyme variant] | 0.992 | 0.733 | 0.802 | 0.722 | 0.702 | 0.952
CCACACUUCAGGCAAUUGGUC [Fam1B.1 aminoacylation ribozyme variant] | 0.558 | 0.887 | 0.647 | 0.83 | 0.823 | 0.556
CCACACUUCAGGCAUUCGGUC [Fam1B.1 aminoacylation ribozyme variant] | 1.09 | 2.2 | 1.88 | 2.48 | 2.2 | 2.27
CCACACUUCAGGCCAUCGGUC [Fam1B.1 aminoacylation ribozyme variant] | 7.44 | 2.37 | 1.94 | 2.49 | 1.77 | 1.69
CCACACUUCAUGCAAUCGGUC [Fam1B.1 aminoacylation ribozyme variant] | 0.866 | 0.819 | 0.687 | 0.9 | 0.693 | 0.689
CCACACUUCAUGCAAUCUGUC [Fam1B.1 aminoacylation ribozyme variant] | 0.605 | 0.454 | 0.391 | 0.479 | 0.35 | 0.277
CCACACUUCAUGCAAUUGGUC [Fam1B.1 aminoacylation ribozyme variant] | 0.619 | 0.658 | 0.764 | 0.791 | 0.627 | 0.43
CCACACUUCAUGCCAUCGGUC [Fam1B.1 aminoacylation ribozyme variant] | 0.488 | 0.957 | 0.691 | 1.1 | 0.921 | 1.59
CCACACUUCAUGCUAUCGGUC [Fam1B.1 aminoacylation ribozyme variant] | 0.838 | 0.834 | 0.626 | 0.931 | 0.69 | 0.714
CCACACUUCCACCAAUCGGUC [Fam1B.1 aminoacylation ribozyme variant] | 0.478 | 0.908 | 0.51 | 0.962 | 0.643 | 0.847
CCACACUUCCAGCAUUCGGUC [Fam1B.1 aminoacylation ribozyme variant] | 1.12 | 2.48 | 2.05 | 2.81 | 2.42 | 2.58
CCACACUUCCAGCGAUCGGUC [Fam1B.1 aminoacylation ribozyme variant] | 1.52 | 1.78 | 1.68 | 1.97 | 1.51 | 1.46
CCACACUUCGAACAAUCGGUC [Fam1B.1 aminoacylation ribozyme variant] | 1.11 | 0.833 | 0.98 | 0.957 | 0.862 | 0.84
CCACACUUCGAGAAAUCGGUC [Fam1B.1 aminoacylation ribozyme variant] | 0.511 | 0.951 | 1.18 | 0.976 | 1.12 | 0.812
CCACACUUCGAGCAAUCGCUC [Fam1B.1 aminoacylation ribozyme variant] | 5.11 | 1.98 | 2.13 | 2.62 | 1.71 | 2.71
CCACACUUCGAGCAAUCGUUC [Fam1B.1 aminoacylation ribozyme variant] | 0.683 | 0.516 | 0.412 | 0.569 | 0.493 | 0.469
CCACACUUCUAGCAAUCGCUC [Fam1B.1 aminoacylation ribozyme variant] | 1.02 | 1.11 | 0.72 | 1.04 | 0.829 | 0.453
CCACACUUCUAGCAAUCGUUC [Fam1B.1 aminoacylation ribozyme variant] | 1.04 | 0.767 | 0.511 | 1.01 | 0.558 | 0.481
CCACACUUCUCGCAAUCGGUC [Fam1B.1 aminoacylation ribozyme variant] | 0.867 | 1.06 | 0.889 | 1.09 | 1.04 | 0.888
CCACACUUGAAGCAAUCGCUC [Fam1B.1 aminoacylation ribozyme variant] | 0.891 | 1.36 | 1.3 | 1.59 | 1.52 | 1.31
CCACACUUGAAGCAAUCGGAC [Fam1B.1 aminoacylation ribozyme variant] | 0.658 | 0.951 | 0.961 | 1.18 | 0.869 | 0.769
